{"source": "patent US9618524B2", "about": "“Method, composition, isolation and identification of a plaque particle and related biomarker” (Plaxgen Inc., priority 2012, dated 2017)", "molecules": {"B1": {"name": "Cluster of Ig mu chain C region (protein, UniProt P01871 1-474, looked up)", "Immunoglobulin heavy constant …": "GSASAPTLFPLVSCENSPSDTSSVAVGCLAQDFLPDSITFSWKYKNNSDISSTRGFPSVLRGGKYAATSQVLLPSKDVMQGTDEHVVCKVQHPNGNKEKNVPLPVIAELPPKVSVFVPPRDGFFGNPRKSKLICQATGFSPRQIQVSWLREGKQVGSGVTTDQVQAEAKESGPTTYKVTSTLTIKESDWLGQSMFTCRVDHRGLTFQQNASSMCVPDQDTAIRVFAIPPSFASIFLTKSTKLTCLVTDLTTYDSVTISWTRQNGEAVKTHTNISESHPNATFSAVGEASICEDDWNSGERFTCTVTHTDLPSPLKQTISRPKGVALHRPDVYLLPPAREQLNLRESATITCLVTGFSPADVFVQWMQRGQPLSPEKYVTSAPMPEPQAPGRYFAHSILTVSEEEWNTGETYTCVVAHEALPNRVTERTVDKSTEGEVSADEEGFENLWATASTFIVLFLLSLFYSTTVTLFKVK"}, "B2": {"name": "Inter-alpha-trypsin inhibitor heavy chain H4 (protein)", "chain": "EKNGIDIYSLTVDSRVSSRFAHTVVTSRVVNRANTVQEATFQMELPKKAFITNFSMIIDGMTYPGIIKEKAEAQAQYSAAVAKGKSAGLVKATGRNMEQFQVSVSVAPNAKITFELVYEELLKRRLGVYELLLKVRPQQLVKHLQMDIHIFEPQGISFLETESTFMTNQLVDALTTWQNKTKAHIRFKPTLSQQQKSPEQQETVLDGNLIIRYDVDRAISGGSIQIENGYFVHYFAPEGLTTMPKNVVFVIDKSGSMSGRKIQQTREALIKILDDLSPRDQFNLIVFSTEATQWRPSLVPASAENVNKARSFAAGIQALGGTNINDAMLMAVQLLDSSNQEERLPEGSVSLIILLTDGDPTVGETNPRSIQNNVREAVSGRYSLFCLGFGFDVSYAFLEKLALDNGGLARRIHEDSDSALQLQDFYQEVANPLLTAVTFEYPSNAVEEVTQNNFRLLFKGSEMVVAGKLQDRGPDVLTATVSGKLPTQNITFQTESSVAEQEAEFQSPKYIFHNFMERLWAYLTIQQLLEQTVSASDADQQALRNQALNLSLAYSFVTPLTSMVVTKPDDQEQSQVAEKPMEGESRNRNVHSGSTFFKYYLQGAKIPKPEASFSPRRGWNRQAGAAGSRMNFRPGVLSSRQLGLPGPPDVPDHAAYHPFRRLAILPASAPPATSNPDPAVSRVMNMKIEETTMTTQTPAPIQAPSAILPLPGQSVERLCVDPRHRQGPVNLLSDPEQGVEVTGQYEREKAGFSWIEVTFKNPLVWVHASPEHVVVTRNRRSSAYKWKETLFSVMPGLKMTMDKTGLLLLSDPDKVTIGLLFWDGRGEGLRLLLRDTDRFSSHVGGTLGQFYQEVLWGSPAASDDGRRTLRVQGNDHSATRERRLDYQEGPPGVEISCWSVEL"}, "B3": {"name": "Isoform 2 of Inter-alpha-trypsin inhibitor heavy chain H4 (protein)", "chain": "EKNGIDIYSLTVDSRVSSRFAHTVVTSRVVNRANTVQEATFQMELPKKAFITNFSMIIDGMTYPGIIKEKAEAQAQYSAAVAKGKSAGLVKATGRNMEQFQVSVSVAPNAKITFELVYEELLKRRLGVYELLLKVRPQQLVKHLQMDIHIFEPQGISFLETESTFMTNQLVDALTTWQNKTKAHIRFKPTLSQQQKSPEQQETVLDGNLIIRYDVDRAISGGSIQIENGYFVHYFAPEGLTTMPKNVVFVIDKSGSMSGRKIQQTREALIKILDDLSPRDQFNLIVFSTEATQWRPSLVPASAENVNKARSFAAGIQALGGTNINDAMLMAVQLLDSSNQEERLPEGSVSLIILLTDGDPTVGETNPRSIQNNVREAVSGRYSLFCLGFGFDVSYAFLEKLALDNGGLARRIHEDSDSALQLQDFYQEVANPLLTAVTFEYPSNAVEEVTQNNFRLLFKGSEMVVAGKLQDRGPDVLTATVSGKLPTQNITFQTESSVAEQEAEFQSPKYIFHNFMERLWAYLTIQQLLEQTVSASDADQQALRNQALNLSLAYSFVTPLTSMVVTKPDDQEQSQVAEKPMEGESRNRNVHSAGAAGSRMNFRPGVLSSRQLGLPGPPDVPDHAAYHPFRRLAILPASAPPATSNPDPAVSRVMNMKIEETTMTTQTPACPSCSRSRAPAVPAPIQAPSAILPLPGQSVERLCVDPRHRQGPVNLLSDPEQGVEVTGQYEREKAGFSWIEVTFKNPLVWVHASPEHVVVTRNRRSSAYKWKETLFSVMPGLKMTMDKTGLLLLSDPDKVTIGLLFWDGRGEGLRLLLRDTDRFSSHVGGTLGQFYQEVLWGSPAASDDGRRTLRVQGNDHSATRERRLDYQEGPPGVEISCWSVEL"}, "B4": {"name": "Ig mu chain C region (protein)", "chain": "GSASAPTLFPLVSCENSPSDTSSVAVGCLAQDFLPDSITFSWKYKNNSDISSTRGFPSVLRGGKYAATSQVLLPSKDVMQGTDEHVVCKVQHPNGNKEKNVPLPVIAELPPKVSVFVPPRDGFFGNPRKSKLICQATGFSPRQIQVSWLREGKQVGSGVTTDQVQAEAKESGPTTYKVTSTLTIKESDWLGQSMFTCRVDHRGLTFQQNASSMCVPDQDTAIRVFAIPPSFASIFLTKSTKLTCLVTDLTTYDSVTISWTRQNGEAVKTHTNISESHPNATFSAVGEASICEDDWNSGERFTCTVTHTDLPSPLKQTISRPKGVALHRPDVYLLPPAREQLNLRESATITCLVTGFSPADVFVQWMQRGQPLSPEKYVTSAPMPEPQAPGRYFAHSILTVSEEEWNTGETYTCVVAHEALPNRVTERTVDKSTGKPTLYNVSLVMSDTAGTCY"}, "B5": {"name": "Alpha-1-antichymotrypsin (protein)", "chain": "HPNSPLDEENLTQENQDRGTHVDLGLASANVDFAFSLYKQLVLKAPDKNVIFSPLSISTALAFLSLGAHNTTLTEILKGLKFNLTETSEAEIHQSFQHLLRTLNQSSDELQLSMGNAMFVKEQLSLLDRFTEDAKRLYGSEAFATDFQDSAAAKKLINDYVKNGTRGKITDLIKDLDSQTMMVLVNYIFFKAKWEMPFDPQDTHQSRFYLSKKKWVMVPMMSLHHLTIPYFRDEELSCTVVELKYTGNASALFILPDQDKMEEVEAMLLPETLKRWRDSLEFREIGELYLPKFSISRDYNLNDILLQLGIEEAFTSKADLSGITGARNLAVSQVVHKAVLDVFEEGTEASAATAVKITLLSALVETRTIVRFNRPFLMIIVPTDTQNIFFMSKVTNPKQA"}, "B6": {"name": "Inter-alpha-trypsin inhibitor heavy chain H2 (protein)", "chain": "SLPGESEEMMEEVDQVTLYSYKVQSTITSRMATTMIQSKVVNNSPQPQNVVFDVQIPKGAFISNFSMTVDGKTFRSSIKEKTVGRALYAQARAKGKTAGLVRSSALDMENFRTEVNVLPGAKVQFELHYQEVKWRKLGSYEHRIYLQPGRLAKHLEVDVWVIEPQGLRFLHVPDTFEGHFDGVPVISKGQQKAHVSFKPTVAQQRICPNCRETAVDGELVVLYDVKREEKAGELEVFNGYFVHFFAPDNLDPIPKNILFVIDVSGSMWGVKMKQTVEAMKTILDDLRAEDHFSVIDFNQNIRTWRNDLISATKTQVADAKRYIEKIQPSGGTNINEALLRAIFILNEANNLGLLDPNSVSLIILVSDGDPTVGELKLSKIQKNVKENIQDNISLFSLGMGFDVDYDFLKRLSNENHGIAQRIYGNQDTSSQLKKFYNQVSTPLLRNVQFNYPHTSVTDVTQNNFHNYFGGSEIVVAGKFDPAKLDQIESVITATSANTQLVLETLAQMDDLQDFLSKDKHADPDFTRKLWAYLTINQLLAERSLAPTAAAKRRITRSILQMSLDHHIVTPLTSLVIENEAGDERMLADAPPQDPSCCSGALYYGSKVVPDSTPSWANPSPTPVISMLAQGSQVLESTPPPHVMRVEND"}}, "data": [{"target": "T1, alpha-synuclein plaque particles (Homo sapiens, UniProt P37840)", "T1 construct": "140 amino acids polypeptide", "experiment": "Mass spectroscopy proteomics, semi-quantitative binding affinity of serum proteins (plaqueproteome, Table 2)", "conditions": "higher number = stronger affinity", "method_in_brief": "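AD-subject plasma or serum (800 μL of 50%) mixed with 30 μg preformed alpha-synuclein aggregates for 1 h at 37 °C; Thioflavin S-positive particles isolated by flow sorting. After reduction, acrylamide alkylation and overnight tryptic digestion, serum proteins identified by MS/MS with Sequest and Scaffold.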", "values": [{"molecule": "B1", "Semi-quantitative analysis of proteins binding to different plaque particles: Synuclein": 9}, {"molecule": "B2", "Semi-quantitative analysis of proteins binding to different plaque particles: Synuclein": 12}, {"molecule": "B3", "Semi-quantitative analysis of proteins binding to different plaque particles: Synuclein": 12}, {"molecule": "B4", "Semi-quantitative analysis of proteins binding to different plaque particles: Synuclein": 8}, {"molecule": "B5", "Semi-quantitative analysis of proteins binding to different plaque particles: Synuclein": 20}, {"molecule": "B6", "Semi-quantitative analysis of proteins binding to different plaque particles: Synuclein": 13}]}, {"system": "Low density cholesterol (Chl small) plaque particles", "experiment": "Mass spectroscopy proteomics, semi-quantitative binding affinity of serum proteins (plaqueproteome, Table 2)", "design": "species or system human", "conditions": "higher number = stronger affinity", "method_in_brief": "(§1)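 Atherosclerotic plasma/serum (50% in PBS) + 30 μg cholesterol aggregates, 1 hr 37° C; FACS gates split low- vs high-density particles. Acetone precipitation, urea/ProteaseMAX, acrylamide alkylation, overnight Trypsin/Lys C at 37° C; Sequest search, Scaffold/Protein Prophet validation.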", "values": [{"molecule": "B1", "Semi-quantitative analysis of proteins binding to different plaque particles: Chl small": 10}, {"molecule": "B2", "Semi-quantitative analysis of proteins binding to different plaque particles: Chl small": 13}, {"molecule": "B3", "Semi-quantitative analysis of proteins binding to different plaque particles: Chl small": 13}, {"molecule": "B4", "Semi-quantitative analysis of proteins binding to different plaque particles: Chl small": 10}, {"molecule": "B5", "Semi-quantitative analysis of proteins binding to different plaque particles: Chl small": 11}, {"molecule": "B6", "Semi-quantitative analysis of proteins binding to different plaque particles: Chl small": 12}]}, {"system": "High Density cholesterol (Chl Large) plaque particles", "experiment": "Mass spectroscopy proteomics, semi-quantitative binding affinity of serum proteins (plaqueproteome, Table 2)", "design": "species or system human", "conditions": "higher number = stronger affinity", "method_in_brief": "as §1", "values": [{"molecule": "B1", "Semi-quantitative analysis of proteins binding to different plaque particles: Chl Large": 10}, {"molecule": "B2", "Semi-quantitative analysis of proteins binding to different plaque particles: Chl Large": 20}, {"molecule": "B3", "Semi-quantitative analysis of proteins binding to different plaque particles: Chl Large": 20}, {"molecule": "B4", "Semi-quantitative analysis of proteins binding to different plaque particles: Chl Large": 10}, {"molecule": "B5", "Semi-quantitative analysis of proteins binding to different plaque particles: Chl Large": 14}, {"molecule": "B6", "Semi-quantitative analysis of proteins binding to different plaque particles: Chl Large": 10}]}, {"target": "T2, Abeta-42 plaque particles (Homo sapiens, UniProt P05067)", "T2 construct": "Abeta 1-42", "experiment": "Mass spectroscopy proteomics, semi-quantitative binding affinity of serum proteins (plaqueproteome, Table 2)", "conditions": "higher number = stronger affinity", "method_in_brief": "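AD patient serum or plasma (50% in PBS) was incubated with Abeta-42 aggregates (30 μg) for 1 h at 37 °C, then stained with Thioflavin S for 30 min. Labeled particles were FACS-sorted, trypsin/Lys-C digested overnight and analyzed by MS/MS. Sequest searched human UniProt; Scaffold/Protein Prophet validated the identifications.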", "values": [{"molecule": "B1", "Semi-quantitative analysis of proteins binding to different plaque particles: Abeta-42": 5}, {"molecule": "B2", "Semi-quantitative analysis of proteins binding to different plaque particles: Abeta-42": 2}, {"molecule": "B3", "Semi-quantitative analysis of proteins binding to different plaque particles: Abeta-42": 2}, {"molecule": "B4", "Semi-quantitative analysis of proteins binding to different plaque particles: Abeta-42": 5}, {"molecule": "B5", "Semi-quantitative analysis of proteins binding to different plaque particles: Abeta-42": 11}, {"molecule": "B6", "Semi-quantitative analysis of proteins binding to different plaque particles: Abeta-42": 9}]}, {"system": "Tau plaque particles", "experiment": "Mass spectroscopy proteomics, semi-quantitative binding affinity of serum proteins (plaqueproteome, Table 2)", "design": "species or system human", "conditions": "higher number = stronger affinity", "method_in_brief": "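Synthetic Tau-74 and Tau-275 peptides (1 mg/mL PBS, 37° C, 2 h) aggregated; 30 μg aggregates incubated with 50% serum/plasma 1 h at 37° C, stained with Thioflavin S, and plaque particles sorted by flow cytometry. Bound proteins trypsin-digested and identified by MS/MS against human UniProt.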", "values": [{"molecule": "B1", "Semi-quantitative analysis of proteins binding to different plaque particles: Tau": 11}, {"molecule": "B2", "Semi-quantitative analysis of proteins binding to different plaque particles: Tau": 15}, {"molecule": "B3", "Semi-quantitative analysis of proteins binding to different plaque particles: Tau": 15}, {"molecule": "B4", "Semi-quantitative analysis of proteins binding to different plaque particles: Tau": 10}, {"molecule": "B5", "Semi-quantitative analysis of proteins binding to different plaque particles: Tau": 16}, {"molecule": "B6", "Semi-quantitative analysis of proteins binding to different plaque particles: Tau": 14}]}]}
